In publication PMC12884264:
pKd: −log10 of the molar value.

Key:
[1] = biological target: Archaeoglobus fulgidus ferritin, wildtype (Archaeoglobus fulgidus) (UniProt O29424); assay: time-resolved fluorescence anisotropy
[2] = biological target: Archaeoglobus fulgidus ferritin, wildtype (Archaeoglobus fulgidus) (UniProt O29424); assay: SEC + other: UV/Vis absorbance
[3] = biological target: computationally designed GFP(+16)BE (positive charges mainly at both ends of the barrel) [GFP: P42212]; assay: SEC
[4] = biological target: supercharged green fluorescent protein GFP(+28) [GFP: P42212]; assay: SEC
[5] = biological target: supercharged green fluorescent protein GFP(+36) [GFP: P42212]; assay: SEC

stoichiometry N (AfFtn2 per GFP(+36)) [1]	stoichiometry N (GFP(+36) per cage) [1]	stoichiometry N (GFP per ferritin cage) [2]	stoichiometry N (GFP(+36) per 24 mer ferritin) [2]	stoichiometry N (GFP(+36) per AfFtn24) [2]	stoichiometry N (GFP(+36) per ferritin 24 mer) [2]	pKd [3]	pKd [4]	pKd [5]	stoichiometry N (GFP per 24 mer) [5]	Substance
12	1	2 to 3	0.7	1.2	4 to 5	–	–	–	–	supercharged green fluorescent protein GFP(+36) (from UniProt P42212 1-238)
–	–	–	–	–	–	4.29	4.44	4.64	3	Archaeoglobus fulgidus ferritin, wildtype (from UniProt O29424 1-173) (natural protein)
